Assay results from paper PMC2174347 (The Journal of Cell Biology, 2000).

Target: wild-type ezrin 1-586 (UniProt P15311 1-586)
Test: solid phase assay

B1: ezrin 1-333 K63N, K64N, K253N, K254N, K262N, and K263N (domain or fragment, UniProt P15311 1-333, looked up)
chain: MPKPINVRVTTMDAELEFAIQPNTTGKQLFDQVVKTIGLREVWYFGLHYVDNKGFPTWLKLDNNVSAQEVRKENPLQFKFRAKFYPEDVAEELIQDITQKLFFLQVKEGILSDEIYCPPETAVLLGSYAVQAKFGDYNKEVHKSGYLSSERLIPQRVMDQHKLTRDQWEDRIQVWHAEHRGMLKDNAMLEYLKIAQDLEMYGINYFEIKNKKGTDLWLGVDALGLNIYEKDDKLTPKIGFPWSEIRNISFNDNNFVIKPIDNNAPDFVFYAPRLRINKRILQLCMGNHELYMRRRKPDTIEVQQMKAQAREEKHQKQLERQQLETEKKRRETV
  binding result: binds
